According to paper PMC2175135:

Biological target: LexA-tpr-met-Gab1Cter Y473F Y590F (two-hybrid bait) (UniProt Q9QYY0)
Assay: two-hybrid

percent of the interaction with Gab1Cter: 25%
Substance: COOH-terminal SH2 domain of p85α PI(3)K (two-hybrid prey) (from UniProt P26450 624-718) (domain or fragment)
